Assay results as given in US12275803B2, “Functionalization of biopolymers with growth factor-binding peptides” (Universiteit Twente, priority 2016, dated 2025).

What was measured:
[1] = test system: TGFB1 reporter cell line (Mink Lung Epithelium Cells, PAI-1 promoter luciferase); test: Luciferase assay in TGFB1 reporter cell line; assay type: cell-based; design: dose or concentration left out as unconfirmed; settings: cells on films with immobilized hTGFB1
Method: MLECs were seeded at 64000 cells/cm^2 and allowed to attach overnight at 37° C. in a 5% CO2 incubator. The medium was then replaced by DMEM without FBS and cells incubated for an additional period of 24 hours. Cells were lysed and the luciferase quantified according to the manufacturer's protocol (Promega, E4530). Luciferase values were normalized for DNA content quantified by CyQuant Cell proliferation assay (Invitrogen).

HUVECs = test: Cell survival of HUVECs after starvation; assay type: cell-based, human; settings: 20 ng/mL hVEGF in medium during 24 hours starvation; versus native films without hVEGF
Method: Samples were incubated with 1 μg/mL of VEGF (PeproTech) in 0.5% (v/v) PBS TWEEN®20 (PBST) for one hour with gentle agitation. The films were then washed three times for 10 minutes with 0.5% (v/v) PBST and then with PBS for a further 10 minutes. Next, the films were blocked for one hour with PBS containing 1% (w/v) bovine serum albumin (BSA) and subsequently washed as described above. Afterwards, the films were incubated with a primary antibody (2 μg/mL; rabbit polyclonal anti-human VEGF, PeproTech) in the blocking solution during one hour with agitation. The films were washed as mentioned above and then incubated with a secondary antibody (8 μg/mL; goat anti-rabbit ALEXA FLUOR® 594, Invitrogen) in PBS containing 1% w/v BSA for one hour with gentle agitation. Before image acquisition, the films were washed three times for 10 minutes with […], rinsed three times with PBS and dried under a N2 stream. Fluorescence intensity was quantified using ImageJ. […]
HUVECs at passage 4 were used for experiments. […] Once detached, fresh medium was added to neutralize the trypsin and the cells were counted. […] After 24 hours, the cells were lysed and the DNA content was quantified by CyQUANT cell proliferation assay (Invitrogen), following the manufacturer's instructions.

[2] = test system: BMP-2 reporter cell line (C2C12 Luc, ID1 promoter luciferase); test: Luciferase assay in BMP-2 reporter cell line; assay type: cell-based; settings: 2 ng/mL inhibitor; response to immobilized hBMP-2
Method: For cell experiments, the sterile films were washed three times with PBS and incubated with concentrated hBMP-2 in PBS for one hour with gentle agitation. Subsequently, the films were extensively washed with TBST (0.5%) and PBS to remove any traces of the washing buffer prior to cell seeding.
C2C12 Luc express luciferase under the control of a ID1 promoter—a BMP-2 target gene (Zilberberg et al., 2007, BMC Cell Biol. 8(41). DOI: 10.1186/1471-2121-8-41).
C2C12 Luc were seeded on films at 16,000 cells/cm2 in DMEM medium supplemented with 10% FBS and allowed to attach overnight at 37° C. in a 5% CO2 incubator. The cells were lysed the following day and the luciferase quantified according to the manufacturer's protocol (Promega, E4530). Luciferase values were normalized for DNA content quantified by CyQUANT cell proliferation assay (Invitrogen).

Molecule: Cc1cccc(-c2[nH]c(C(C)(C)C)nc2-c2ccc3c(c2)OCO3)n1.Cl [SB-431452, 2-(5-benzo[1,3]dioxol-5-yl-2-tert-butyl-3H-imidazol-4-yl)-6-methylpyridine hydrochloride]
- luciferase activity in presence of TGF-β1 inhibitor [1]: completely suppressed

B1: soluble VEGF: soluble hVEGF added to the medium during starvation (protein)
chain: APMAEGGGQNHHEVVKFMDVYQRSYCHPIETLVDIFQEYPDEIEYIFKPSCVPLMRCGGCCNDEGLECVPTEESNITMQIMRIKPHQGQHIGEMSFLQHNKCECRPKKDRARQENPCGPCSERRKHLFVQDPQTCKCSCKNTDSRCKARQLELNERTCRCDKPRR
- survival of HUVECs (total amount of DNA) with soluble VEGF (HUVECs): significant increase in the amount of DNA

B2: Noggin: specific BMP-2 inhibitor (protein, UniProt Q13253 28-232, looked up)
Noggin: QHYLHIRPAPSDNLPLVDLIEHPDPIFDPKEKDLNETLLRSLLGGHYDPGFMATSPPEDRPGGGGGAAGGAEDLAELDQLLRQRPSGAMPSEIKGLEFSEGLAQGKKQRLSKKLRRKLQMWLWSQTFCPVLYAWNDLGSRFWPRYVKVGSCFSKRSCSVPEGMVCKPSKSVHLTVLRWRCQRRGGQRCGWIPIQYPIISECKCSC
- luciferase activity in presence of BMP-2 inhibitor [2]: completely suppressed
